{
  "source": "paper PMC5830440",
  "biological_target": "BG505 SOSIP.664 Env trimer (HIV-1 (BG505))",
  "assay": "BLI; biotinylated BG505 SOSIP.664 trimer (10 µg/mL) captured on Streptavidin biosensors; ScFv in 2-fold dilution series starting at 500 nM; 1:1 binding model, global fit; KD = koff/kon",
  "data": [
    {"substance": "VRC01 ScFv (parental ScFv)", "values": [
      {"measurement": "Kd", "value": "< 1", "unit": "pM"},
      {"measurement": "koff", "value": "< 1e-07", "unit": "s⁻¹"}
    ]}
  ]
}
